Data published in patent publication US20220243184, “ENGINEERED Cas-Transposon SYSTEM FOR PROGRAMMABLE AND SITE-DIRECTED DNA TRANSPOSITIONS” (THE TRUSTEES OF COLUMBIA UNIVERSITY IN THE CITY OF NEW YORK, published 2022).

Target: Himar1C9-XTEN-dCas9 (Himar-dCas9) (synthetic fusion (Haematobia irritans …, UniProt Q99ZW2 SEQ:1-1732))
Assay: no gRNA; baseline insertion hotspot
Settings: tags: C-terminal 6xHis; chain copies: 2 inferred
Method: FIG. 2A through FIG. 2C. Himar-dCas9 specificity is dependent on gRNA spacing and target site. (FIG. 2A) Illustration of gRNA strand orientation and spacings to TA insertion site gRNA1 (SEQ ID NO: 53) and gRNA2 (SEQ ID No: 54) and target DNA (SEQ ID No: 55). (FIG. 2B) PCR analysis of transposon-target junctions from in vitro reactions containing 30 nM Himar-dCas9/gRNA complex, 2.27 nM transposon donor DNA, and 2.27 nM target DNA. Reactions (n=3) were run using gRNAs with spacings between 5 and 18 bp from the TA insertion site. Non-targeting gRNA (gRNA_5), no gRNA, and no transposase controls were also performed. Arrowheads indicate expected site-specific PCR products for each gRNA. Error bars indicate standard deviation. (FIG. 2C) Transposon sequencing results for reactions with no gRNAs (left, n=4) or with gRNA_4 (n=3), gRNA_8 (n=3), gRNA_12 (n=3), or gRNA_5 (n=3). The baseline random distribution of transposons along the recipient plasmid in each panel with a gRNA is shown in light gray.
To assess the distribution of transposon insertions around the target pGT-B1 plasmid, transposon sequencing was performed on transposition products resulting from three GFP-targeting gRNAs (gRNA_4, gRNA_8, and gRNA_12), a non-targeting gRNA, and no gRNA (FIG. 2C and FIG. 8). […]

B1: pGT-B1 position 5999 T/A-rich insertion site (dsDNA)
DNA 1: GCGAATTTTAAAATTCGC
DNA 2: GCGAATTTTAAAATTCGC
Question: Does B1 bind?
Answer: binds
